Measurements: PMC8221199
Where two headings read alike, the source gives them in different places.

Assays:
[1] = biological target: p53 N-terminal peptide (Homo sapiens) (UniProt P04637); conditions: cited from earlier work
[2] = biological target: p53 N-terminal peptide (Homo sapiens) (UniProt P04637); conditions: cited from earlier work; remark: listed apart in the source
[3] = biological target: acetyltransferase p300 (UniProt Q09472)
[4] = biological target: p53 N-terminal peptide (Homo sapiens) (UniProt P04637); conditions: cited from earlier work; remark: listed apart in the source
[5] = biological target: p53 N-terminal peptide (Homo sapiens) (UniProt P04637); conditions: cited from earlier work; remark: listed apart in the source

Chain of p300 Taz1 (Q09472 323-423): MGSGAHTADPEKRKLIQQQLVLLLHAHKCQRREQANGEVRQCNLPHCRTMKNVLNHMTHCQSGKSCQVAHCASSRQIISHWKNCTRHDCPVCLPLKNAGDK
Chain of p300 Taz2 (Q09472 1723-1812): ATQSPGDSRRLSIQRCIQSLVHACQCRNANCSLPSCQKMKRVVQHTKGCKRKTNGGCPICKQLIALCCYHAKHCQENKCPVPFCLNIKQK
Chain of p300 IBiD (Q09472 2050-2094): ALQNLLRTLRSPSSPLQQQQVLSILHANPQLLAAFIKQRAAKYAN
Chain of p300 Kix (Q09472 563-648): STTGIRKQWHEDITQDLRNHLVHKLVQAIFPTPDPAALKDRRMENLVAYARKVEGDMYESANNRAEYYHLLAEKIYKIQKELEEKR
Chain of acetyltransferase p300 (Q09472 whole entry): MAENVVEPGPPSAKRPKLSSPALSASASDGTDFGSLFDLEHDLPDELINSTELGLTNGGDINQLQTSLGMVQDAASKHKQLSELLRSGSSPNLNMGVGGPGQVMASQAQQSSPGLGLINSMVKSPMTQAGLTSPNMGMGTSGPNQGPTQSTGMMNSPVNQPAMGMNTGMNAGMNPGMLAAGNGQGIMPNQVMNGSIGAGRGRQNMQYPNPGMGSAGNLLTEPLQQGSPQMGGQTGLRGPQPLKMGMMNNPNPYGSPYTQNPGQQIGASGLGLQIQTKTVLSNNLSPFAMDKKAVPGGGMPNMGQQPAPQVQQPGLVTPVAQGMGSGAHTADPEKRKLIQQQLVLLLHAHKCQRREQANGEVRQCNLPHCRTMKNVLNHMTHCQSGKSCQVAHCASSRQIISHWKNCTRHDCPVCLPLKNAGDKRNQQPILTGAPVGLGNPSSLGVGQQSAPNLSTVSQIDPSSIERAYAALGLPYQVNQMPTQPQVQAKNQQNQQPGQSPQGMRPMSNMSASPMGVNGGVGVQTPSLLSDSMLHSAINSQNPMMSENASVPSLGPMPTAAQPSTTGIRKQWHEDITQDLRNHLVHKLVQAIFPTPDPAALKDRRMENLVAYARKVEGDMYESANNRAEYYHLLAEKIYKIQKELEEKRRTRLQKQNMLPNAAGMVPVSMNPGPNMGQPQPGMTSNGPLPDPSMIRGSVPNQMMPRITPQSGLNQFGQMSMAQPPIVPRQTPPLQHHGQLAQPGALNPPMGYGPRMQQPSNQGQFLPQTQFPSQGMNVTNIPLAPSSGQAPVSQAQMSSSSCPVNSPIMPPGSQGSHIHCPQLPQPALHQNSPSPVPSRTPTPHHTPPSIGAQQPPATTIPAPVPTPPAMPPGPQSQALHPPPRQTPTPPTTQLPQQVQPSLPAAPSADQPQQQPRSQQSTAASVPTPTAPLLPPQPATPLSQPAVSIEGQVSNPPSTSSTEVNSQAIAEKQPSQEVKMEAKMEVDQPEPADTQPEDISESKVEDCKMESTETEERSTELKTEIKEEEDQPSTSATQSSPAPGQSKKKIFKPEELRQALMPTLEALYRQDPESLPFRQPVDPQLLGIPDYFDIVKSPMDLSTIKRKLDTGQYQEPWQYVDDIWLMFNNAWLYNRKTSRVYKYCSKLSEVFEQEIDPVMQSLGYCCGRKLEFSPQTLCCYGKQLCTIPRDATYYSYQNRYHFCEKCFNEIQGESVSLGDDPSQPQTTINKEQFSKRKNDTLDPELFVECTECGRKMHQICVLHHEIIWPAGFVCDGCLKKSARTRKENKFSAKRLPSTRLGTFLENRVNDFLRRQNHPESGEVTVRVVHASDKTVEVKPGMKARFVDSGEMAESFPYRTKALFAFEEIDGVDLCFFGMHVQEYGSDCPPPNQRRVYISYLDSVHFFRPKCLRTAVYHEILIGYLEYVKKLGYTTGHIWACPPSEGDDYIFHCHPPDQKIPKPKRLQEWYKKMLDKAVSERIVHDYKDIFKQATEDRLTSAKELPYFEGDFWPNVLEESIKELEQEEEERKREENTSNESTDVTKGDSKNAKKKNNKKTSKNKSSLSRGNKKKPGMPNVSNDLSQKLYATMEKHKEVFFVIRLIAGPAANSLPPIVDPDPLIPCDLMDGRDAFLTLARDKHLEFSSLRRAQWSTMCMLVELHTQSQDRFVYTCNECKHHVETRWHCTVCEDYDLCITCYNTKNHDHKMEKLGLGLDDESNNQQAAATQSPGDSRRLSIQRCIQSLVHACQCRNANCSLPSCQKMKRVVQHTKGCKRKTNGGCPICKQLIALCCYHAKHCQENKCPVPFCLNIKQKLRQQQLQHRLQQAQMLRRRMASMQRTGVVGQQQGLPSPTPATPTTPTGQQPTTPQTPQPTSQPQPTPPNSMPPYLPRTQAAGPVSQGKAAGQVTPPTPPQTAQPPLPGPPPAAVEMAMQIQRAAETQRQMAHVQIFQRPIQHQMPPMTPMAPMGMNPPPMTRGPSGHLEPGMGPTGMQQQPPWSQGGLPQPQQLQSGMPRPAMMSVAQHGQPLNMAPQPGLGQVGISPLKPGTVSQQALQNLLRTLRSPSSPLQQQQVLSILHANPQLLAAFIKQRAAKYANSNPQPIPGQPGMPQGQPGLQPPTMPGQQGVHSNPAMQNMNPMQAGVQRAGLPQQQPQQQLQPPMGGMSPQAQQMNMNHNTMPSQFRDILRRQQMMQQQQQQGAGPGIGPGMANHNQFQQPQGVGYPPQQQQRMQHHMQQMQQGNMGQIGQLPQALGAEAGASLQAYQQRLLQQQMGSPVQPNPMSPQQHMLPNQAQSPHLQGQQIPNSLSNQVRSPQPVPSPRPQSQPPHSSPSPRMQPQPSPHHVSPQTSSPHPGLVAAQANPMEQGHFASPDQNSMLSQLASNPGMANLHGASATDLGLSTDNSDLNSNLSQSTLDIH

Substance: p300 Kix (from UniProt Q09472)
- Kd [1]: 3000 nM

Substance: p300 Taz1 (from UniProt Q09472)
- Kd [2]: 1000 nM

Substance: semi-synthetic full-length p53 with phosphoserine at positions 15 and 20 (from UniProt P04637 1-393) (natural protein)
- p300-dependent acetylation of p53 (western blot, Lys373ac), relative rate [3]: 2.3 fold

Substance: p300 Taz2 (from UniProt Q09472)
- Kd [4]: 20 nM

Substance: p300 IBiD (from UniProt Q09472)
- Kd [5]: 8000 nM
